Consider 1 substance from article PMC10457309.

The term Kd denotes a measure of binding affinity in units of concentration.

The target of this assay is HH-120 (IgM-like hACE2-Fc fusion protein) (UniProt Q9BYF1). Description: SPR.

The substance “SARS-CoV-2 RBD (amino acids 316-512 of the S protein in the SARS-CoV-2 D614 strain) (from UniProt P0DTC2 316-512) (domain or fragment)” had a Kd of 26.4 nM.
